Data as given in paper PMC7606108 (Acta Pharmaceutica Sinica. B, 2020).

Target: the molecule itself
Assay: sucrose density gradient analysis

B1: Acetylcholinesterase, endogenous in macrophages (enzyme, UniProt P21836 32-614, looked up)
chain: EGREDPQLLVRVRGGQLRGIRLKAPGGPVSAFLGIPFAEPPVGSRRFMPPEPKRPWSGVLDATTFQNVCYQYVDTLYPGFEGTEMWNPNRELSEDCLYLNVWTPYPRPASPTPVLIWIYGGGFYSGAASLDVYDGRFLAQVEGAVLVSMNYRVGTFGFLALPGSREAPGNVGLLDQRLALQWVQENIAAFGGDPMSVTLFGESAGAASVGMHILSLPSRSLFHRAVLQSGTPNGPWATVSAGEARRRATLLARLVGCPPGGAGGNDTELIACLRTRPAQDLVDHEWHVLPQESIFRFSFVPVVDGDFLSDTPEALINTGDFQDLQVLVGVVKDEGSYFLVYGVPGFSKDNESLISRAQFLAGVRIGVPQASDLAAEAVVLHYTDWLHPEDPTHLRDAMSAVVGDHNVVCPVAQLAGRLAAQGARVYAYIFEHRASTLTWPLWMGVPHGYEIEFIFGLPLDPSLNYTTEERIFAQRLMKYWTNFARTGDPNDPRDSKSPQWPPYTTAAQQYVSLNLKPLEVRRGLRAQTCAFWNRFLPKLLSATDTLDEAERQWKAEFHRWSSYMVHWKNQFDHYSKQERCSDL
B1 was tested. Which “stoichiometry N” value did it give?
Its value is 4.
